From patent publication US20210261937

What was measured:
[1] = molecular target: scSUMO-MBP fusion protein with the bdSUMO^Mut1 exchanges
[2] = molecular target: bdSUMO Mut10-MBP fusion protein
[3] = molecular target: hsSUMO2-MBP fusion protein
[4] = molecular target: bdSUMO Mut11-MBP fusion protein
[5] = molecular target: bdSUMO-MBP fusion protein
[6] = molecular target: hsSUMO2-MBP fusion protein with the bdSUMO^Mut11 exchanges
[7] = molecular target: bdSUMO^Mut1-MBP fusion protein
[8] = molecular target: bdSUMO D67K-MBP fusion protein
[9] = molecular target: bdSUMO Mut13-MBP fusion protein
[10] = molecular target: bdSUMO Mut12-MBP fusion protein
[11] = molecular target: bdSUMO Mut15-MBP fusion protein
[12] = molecular target: scSUMO-MBP fusion protein with the bdSUMO^Mut11 exchanges
[13] = molecular target: scSUMO-MBP fusion protein
[14] = molecular target: bdSUMO Mut14-MBP fusion protein
[15] = molecular target: hsSUMO2-MBP fusion protein with the bdSUMO^Mut1 exchanges
[16] = molecular target: bdSUMO Mut8-MBP fusion protein

Row | Protein | cleavage of 100 µM fusion, 1 h at 0 °C (FIG. 7) (SUMOstar-MBP fusion) | cleavage of the SUMO fusion protein [2] | cleavage of the SUMO fusion protein [3] | cleavage of the SUMO fusion protein [4] | cleavage of the SUMO fusion protein [5] [% cleavage] | cleavage of the SUMO fusion protein [7] | cleavage of the SUMO fusion protein [8] | cleavage of the SUMO fusion protein [9] | cleavage of the SUMO fusion protein [10] | cleavage of the SUMO fusion protein [11] | cleavage of the SUMO fusion protein [13] | cleavage of the SUMO fusion protein [14] | cleavage of the SUMO fusion protein [16] | also measured
1 | SUMOstar protease (protein) LVPELNEKDDDQVQKALASRENTQLMNRDNIEITVRDFKTLAPRRWLNSGIISFFMKYIEKSTPNTVAFNSFFYTNLSERGYQGVRRWMKRKKTQIDKLDKIFTPINLNQSHWALGIIDLKKKTIGYVDSLSNGPNAMSFAILTDLQKYVMEESKHTIGEDFDLIHLDCPQQPNGYDCGIYVCMNTLYGSADAPLDFDYKDAIRMRRFIAHLILTDALK | SUMOstar protease only recognized SUMOstar-MBP | resistant | < 25 % cleavage | resistant | 100 | resistant | resistant | resistant | resistant | resistant | 100 % cleavage | resistant | resistant | cleavage of SUMO-MBP fusion, 1 h at 25 °C (FIG. 14) [1]: allowed cleavage resistance against Ulp1, SUMOstar protease, hsSENP2 and bdSENP1; cleavage of SUMO-MBP fusion, 1 h at 25 °C (FIG. 14) [6]: allowed cleavage resistance against Ulp1, SUMOstar protease, hsSENP2 and bdSENP1; cleavage of 100 µM fusion, 1 h at 0 °C (FIG. 7) [7]: left intact the bdSUMO^Mut1-MBP fusion protein even at the highest SUMOstar protease concentration of 10 µM; cleavage of bdSUMO-MBP variants by 10 µM SUMOstar protease, 2 h at 25 °C (FIG. 5) [8]: the D67K mutation alone was necessary and sufficient for blocking cleavage; cleavage of SUMO-MBP fusion, 1 h at 25 °C (FIG. 14) [12]: allowed cleavage resistance against Ulp1, SUMOstar protease, hsSENP2 and bdSENP1; cleavage of SUMO-MBP fusion, 1 h at 25 °C (FIG. 14) [15]: allowed cleavage resistance against Ulp1, SUMOstar protease, hsSENP2 and bdSENP1
2 | bdSENP1^MutB protease (protein) PFVPLTDEDEDNVRHALGGRKRSETLSVHEASSIVITREILQCLNDKEWLNDEVINLYLELLKERELREPNKFLKCHFFNTFFYKKLINGGYDYKSVREWTTKRKLGYNLIDCDKIFVPIHKDVHWCLAVINIKEKKFQYLDSLGYMDMKALRILAKYLVDEVKDKSGKQIDVHAWKQEGVQNLPLQENGWDCGMFMLKYIDFYSRDMELVFGQKHMSYFRRRTAKEILDLKAG | the SUMOstar-MBP fusion remained intact even at the highest protease concentration of 10 µM | 100 % cleavage | resistant | 100 % cleavage | < 25 | 100 % cleavage | < 75 % cleavage | 100 % cleavage | 100 % cleavage | 100 % cleavage | resistant | 100 % cleavage | < 50 % cleavage | cleavage of SUMO-MBP fusion (FIG. 14) [3]: wild type scSUMO and human SUMO-2 (hsSUMO2) fusion proteins remain intact even in the presence of extremely high concentration of bdSENP1^MutB; molar excess of substrate cleaved within one hour at 0 °C [7]: able to cleave a 500-fold molar excess of substrate within one hour at 0 °C; protease concentration that cleaves the cognate substrate, 1 h at 0 °C (FIG. 7) [7]: bdSENP1^MutB protease only cleaved its cognate substrate at a concentration of 200 nM; protease concentration that cleaves ≈95% of 100 µM substrate, 1 h at 0 °C [7]: only 200 nM of bdSENP1^MutB protease were enough to cleave ≈95% of the cognate substrate (bdSUMOmut 1); proteolytic efficiency against TEV protease [7]: around 1000-fold more efficient than the site-specific protease from the tobacco etch virus (TEV protease); proteolytic efficiency against bdSENP1 or Ulp1 on their cognate substrates [7]: only 5-fold less efficient as compared bdSENP1 or Ulp1; cleavage of SUMO-MBP fusion (FIG. 14) [13]: wild type scSUMO and human SUMO-2 (hsSUMO2) fusion proteins remain intact even in the presence of extremely high concentration of bdSENP1^MutB
